Experimental data reported in the DeepSol protein solubility set.

Assay: soluble on expression in E. coli; label from the status in PepcDB or PDB records

| Sequence | soluble on expression in E. coli |
| --- | --- |
| MGGSHHHHHHRSESTVTEELKEGIDAVYPSLVGTADSKAEGIKNYFKLSFTLPEEQKSRTVGSEAPLKDVAQALSSRARYELFTEKETANPAFNGEVIKRYKELMEHGEGIADILRSRLAKFLNTKDVGKRFAQGTEANRWVGGKLLNIVEQDGDTFKYNEQLLQTAVLAGLQWRLTATSNTAIKDAKDVAAITGIDQALLPEGLVEQFDTGMTLTEAVSSLAQKIESYWGLSRNPNAPLGYTKGIPTAMAAEILAAFVESTDVVENIVDMSEIDPDNKKTIGLYTITELDSFDPINSFPTAIEEAVLVNPTEKMFFGDDIPPVANTQLRNPAVRNTPEQKAALKAEQATEFYVHTPMVQFYETLGKDRILELMGAGTLNKELLNDNHAKSLEGKNRSVEDSYNQLFSVIEQVRAQSEDISTVPIHYAYNMTRVGRMQMLGKYNPQSAKLVREAILPTKATLDLSNQNNEDFSAFQLGLAQALDIKVHTMTREVMSDELTKLLEGNLKPAIDMMVEFNTTGSLPENAVDVLNTALGDRKSFVALMALMEYSRYLVAEDKSAFVTPLYVEADGVTNGPINAMMLMTGGLFTPDWIRNIAKGGLFIGSPNKTMNEHRSTADNNDLYQASTNALMESLGKLRSNYASNMPIQSQIDSLLSLMDLFLPDINLGENGALELKRGIAKNPLTITIYGSGARGIAGKLVSSVTDAIYERMSDVLKARAKDPNISAAMAMFGKQAASEAHAEELLARFLKDMETLTSTVPVKRKGVLELQSTGTGAKGKINPKTYTIKGEQLKALQENMLHFFVEPLRNGITQTVGESLVYSTEQLQKATQIQSVVLEDMFKQRVQEKLAEKAKDPTWKKGDFLTQKELNDIQASLNNLAPMIETGSQTFYIAGSENAEVANQVLATNLDDRMRVPMSIYAPAQAGVAGIPFMTIGTGDGMMMQTLSTMKGAPKNTLKIFDGMNIGLNDITDASRKANEAVYTSWQGNPIKNVYESYAKFMKNVDFSKLSPEALEAIGKSALEYDQRENATVDDIANAASLIERNLRNIALGVDIRHKVLDKVNLSIDQMAAVGAPYQNNGKIDLSNMTPEQQADELNKLFREELEARKQKVAKA | soluble |
| MGHHHHHHSHMKEPLDGECGKAVVPQQELLDKIKEEPDNAQEYGCVQQPKTQESKLKIGGVSSVNERPIAQQLNPGFQLSFASSGPSVLLPSVPAVAIKVFCSGCKKMLYKGQTAYHKTGSTQLFCSTRCITRHSSPACLPPPPKKTCTNCSKYKILNIPFYFTFF | not soluble |
| MGSDKIHHHHHHMHFVMIFLDGFGLGGDRDNPIMAAHTPYIDELLGGHYLWGQERRIESEQLILIPLDASLDVTGIPQSATGQTTLWTGVNGAKALGFHLNAYPNEKLAEIIKEKSIFKQLADQGKKVTFANTFTSHYDEMIASGKRRHTASTLSALAGGVPLRRIEDLLQGKGVYQDMTNEILRELEQEADIPLITSYEAGKNLGRLALDYDFTLYEFFQTDVRGHKQDWEKAVALIEQIDGFIGGFMSVVRHEDVTWLLTSDHGNIEDFRVKGHTQNPVPALGWSSKPLEWPQWERLEDVTPGIVRMILGTREL | not soluble |
| MYYGIKALTVGRGESVRAKITTTIEEALLNKAKALAKQEGLSGANAIIERALELYFTSIQSEVWEKSLSSGWIKKLVLKRDSILYENIKCRKTMENCRPDDYTPESLKAKGWKKV | not soluble |
| MGSDKIHHHHHHMGKVYVIGNFKGGVGKTKTVTMLAYESALQLGRKTLVIDLDPQGNATRVLAKTGDLAEITYTVTEAFQEGSLEPAITNISENLDLIPANTAFRNLTKILMTKFPSNEFDQINYLNTLLKPLKEKYDAIYIDVPPTISDFSDNAMLAADYCIIVLQTQELSLDGAQTYIAYMQYLADTYDNDLQVLGIIPCMLRPGGRVDNKVLEQAKELYGGNVLNTVVKYQERLKVYDVEGIKISHNYTGKADGWDVKAHKVFIDVLNELDQHQLVLEELEG | not soluble |
| MGSDKIHHHHHHMTSPVENVKKKPRPLALSPSRAGDYQQCPLLYRFRAIDRLPEPKTVAQVKGTLVHAVLEYMHKLPREEREYPAMVKQLKPTWAQMCEEDAELKELVPEDELYDFLVDSRTLLRGYFEMENPQGFDATECEMYVDTVLPNGVPVRGFIDRVDTAPTGQVRVIDYKTGKKPKPQWSQQAQFQMLFYALVYWRMFNEIPAQLRLMYLKVNDSMFLNPSREQLEFFERDLGDLWAKIEMDGKAGHFRTKTSKLCGWCPHQSLCPEYGGVPPEYPGWPGSTAD | not soluble |
| MAGGARDDLAEKMAGEVALSDDPGATLRKWRTDFDVAQTELADELDVSPSVVSDYESGRRDNPGIGVVRRLVVALLDIDENRGGDHIRQHARVLSAGFDSDVVHDLREYSANVGVERVYDAIDAEELFRGSQDTVAGHTVINSIAAITRLSSDEFYQLYGQSTNRALVFTNVTRGESPLVALRVVSPTPNAVILHGLEDEAVWEHAQDLARIDDFSLAITDIELEDLLGGLRELP | not soluble |
| SNDYRVAVFGAGGVGKSSLVLRFVKGTFRESYIPTVEDTYRQVISCDKSICTLQITDTTGSHQFPAMQRLSISKGHAFILVYSITSRQSLEELKPIYEQICEIKGDVESIPIMLVGNKCDESPSREVQSSEAEALARTWKCAFMETSAKLNHNVKELFQELLNLEKRRTVSL | soluble |
| MSLIEQLIQQAQPYWQQYIEHEFVQQLAKGTLPKACFQHYLKQDYLYLFHYSRAFALGVFKAKNFAEMETPRKTLEILCQEIQLHLNYCREWGISEQEIFTTQESAACIAYTRYLLDCGMTGSLAELYAAVTPCALGYAQVARYITQHYPRLPNNPYQTWIDTYASEEFQQAAQETVDFLTALCKPLNPSQLAEIQQIFTTATRMEIAFWQMGLDLAEGGSHHHHHH | soluble |
| MSIEQYFQHLACAPTSLNLIWFTVEMSELAKELPSKEAKTGLIKSIAHILHDEKFEKIRGDEAMLNLFEMLAKCSTKIGGAEVYKQAYGLDLFNYYKEFYFQWAHECGKIKSVSQFRTVFFLARSQLFYHLSPISIEKDFENIFQQYFGKLSMHHCLERTETLNKLFAGCSVEEFASAENVMSFGNSRELSGRSVDVRPNHRVLEVARGTMMSSSEISPNKSDSSVLLNKSPPTNSPIIKFGTYPKIHLQNVSSSMLNARRRQLTATVTTVDSQKGKPTFANETY | not soluble |
| MAHHHHHHMGLLNTKPCSLIPAKEAFEREKKIYDKAILSFDGVNGYDVYNCSVPFTYDGKTYIFGRVEKKDEWVHSNSILFEKVGENRYRRHPTSITYNLEDPFVVKIHGEMVLGGTHVTKNGGKVSDYRCEFYHGTPLNLKYFSSGPSKMKDIRLVELADGKIGVFTHFRTEGSCLTGFATIDKIEDLTVEVINSAKLINHRPFGDAWGGPSQVYLLSSGLLGCISHHGYLLDQKDDIQLRIYACTSFVFDPATYDVYNFKIIGTKGCFPPCEPKLPHLADCAFVSGIEMRDDGKCNLYSGIGDVAEGCIVIDYPFEGYGKIVSDVAF | soluble |
| MSLISVIMPVYNCEKYLEESIESILKQTYRDFEFIIVNDGSNDKSIDIINKYANDDNRIVVVSRDNNMGMVYSLNEGIDRAKGSYVARMDADDIALPERFERQIEYLNKNKDVDILACKVEAFGDVSREQKLEREHWYNVDLNNSESIESLFLENCYIAHPSVMMKMSVLKALGGYNLNYKRTEDYNLWLRAIAKGYKIAMLEEKLMKIRLHNDSKIHRDAEGFSSIRDIIQSRLEYVKEKLKLKDFSYVIWGASNGGKIAYEKIKEVFPNAKLNGYIDKFKTGKFEGVDIFYPEDLSKMKVDYVFIATLPGCKEAKGILTKNNFVPIKDFLVLCEGHHHHHH | soluble |
| VKVRYENDKYLIPFASLDANQRMEFDLKDPQGKVILLAGKKLTSRKIKELKENHLEWVEYPMDILLNRHLAEPVMVGKEVLLDMLTQLDKNKLEKIHDLG | not soluble |
| MIVGMSVSLLRGRTVRRVLSVLVVAGLLGAGVTGCSNDAGAKTENTVDASPTPTNTPTDGDGDSAEEPAQDTPAEPEQRPVPEEPEAMKTGDKAGAIAAATFFVEVIEYSLHSNNPELLEKYSYENCTNCNNLIETIAYRSKNGYESLETSYVINSVGTPSYVGTNHIIWGVPMSITSKEQLNRKESEQIETNKLTIYVTYENGEWDLTSIDPDGGQSTK | not soluble |
